The target in this assay is T1, human Ndc80 loop segment (residues 370–509) with a cysteine added at each end (human, UniProt O14777 370-509).
T1 chain: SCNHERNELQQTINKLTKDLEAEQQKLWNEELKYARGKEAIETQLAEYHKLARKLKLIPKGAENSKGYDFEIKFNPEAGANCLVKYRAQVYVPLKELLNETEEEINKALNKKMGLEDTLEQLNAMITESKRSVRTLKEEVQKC
Kind of assay: crystal structure.

B1: human Nuf2 segment (residues 252–347) with a cysteine added at each end (domain or fragment)
chain: CKNYKEKMKDTVQKLKNARQEVVEKYEIYGDSVDCLPSCQLEVQLYQKKIQDLSDNREKLASILKESLNLEDQIESDESELKKLKTEENSFKRLMIVC
In the case of B1, the binding result is reported as “binds”.

For the origin of these results see article doi:10.1101/2022.11.09.515846 (bioRxiv, 2022).
